Assay: soluble on expression in E. coli; label from the status in PepcDB or PDB records
In the case of “MAVKHKSESLKHEEGAAKKAKTGLLKLKKIMDIESNVVKYSICIPTTVIDNCNNLEQVTFTAYQIARTAVLFNVQEIIVLDQSKDKKHEKKSRSKETISDCLLLATLLQYFVTPPNLLDTTFKKKNKLYLKCASTFPPLNQLPFMNASAEQHYKEGLSIARDSSKGKSDDALTNLVYIGKNQIITLSNQNIPNTARVTVDTERKEVVSPIDAYKGKPLGYHVRMASTLNEVSEGYTKIVWVNSGDFHYDEELSKYHKVETKLPYIAKLKKSSTSEKPCNILLIFGKWGHLKRCFRRSDLESSSLHHYFSGQLQFPASVPQGNIPIQDSLPIALTMFQRWAS”, the “soluble on expression in E. coli” value is reported as “soluble”. With “MAVMIVGGGMAGATLALAISRLSQGTIPVDLIEAYSPLDKEHPGFDARALALSDGTRQQLAALGIWQAMSGNATAITDIHVSERGHASVVNLHAADYHVQALGHVVELHDVGQRLFSLLQQAPGVRLHCPAKVVAVTRTQENATLTLDNGTALTGQLLVAADGSHSMLSQSCGIHWQQHEYDQVAVIANVTTGEPHRGRAFERFTPHGPLALLPMSNGRSSLVWCHDKHRQHDVDGWSETEFRQQLQLAFGWRLGQFTHIGERHSYPLRLLTASQHTSHRLALVGNAAQTLHPIAGQGFNLGIRDVMSLAETLVEAVKNQQDIGQYSVLSRYQQRREPDQHTTVAITDGLVRLFANRYTALAVGRNLGLIAMNNLPLMRDAFARRTLGWVERLEHHHHHH” the “soluble on expression in E. coli” value was “not soluble”. For “MAVPPAYADLGKSAKDIFNKGYGFGMVKLDVKTKSASGVEFKTSGSSNTDTSKVVGSLETKYKRSEYGLTFTEKWNTDNTLGTEINIEDQIAKGLKLTFDTTFSPNTGKKSGKVKTAYKREFVNLGCDVDFDFAGPTIHGAAVVGYEGWLAGYQMSFDTAKSKMTQNNFAVGYKTGDFQLHTNVNDGSEFGGSIYQKVSDKLETAVNLAWTAGSNSTRFGIAAKYQLDKDASISAKVNNTSLVGVGYTQSLRPGIKLTLSALVDGKSINSGGHKLGLGLELEA”, the “soluble on expression in E. coli” value was “not soluble”. In the case of “MAVQYKSTTTEHKFKHLSVYERGQIAALLKEGKSQRYIANKLGRSPSTISREIKRGTTMQMRTDLSTYKVYFPETGQAVYEKNRMNCGAKRKLAQVEDFLKFAEDKILREKWSPDAVVGLCRRDPKWQNSTIVCTKTLYNYIDLGLIKVRNIDLNLKLRLKS”, the “soluble on expression in E. coli” value is reported as “soluble”. In the case of “MAVSDSQNSQTCLDPDASRSVLGIILGGGAGTRLYPLTKKRAKPAVPLGANYRLIDIPVSNCLNSNISKIYVLTQFNSASLNRHLSRAYASNMGGYKNEGFVEVLAAQQSPENPDWFQGTADAVRQYLWLFEEHTVLEYLILAGDHLYRMDYEKFIQAHRETDADITVAALPMDEKRATAFGLMKIDEEGRIIEFAEKPQGEQLQAMKVDTTILGLDDKRAKEMPFIASMGIYVISKDVMLNLLRDKFPGANDFGSEVIPGATSLGMRVQAYLYDGYWEDIGTIEAFYNANLGITKKPVPDFSFYDRSAPIYTQPRYLPPSKMLDADVTDSVIGEGCVIKNCKIHHSVVGLRSCISEGAIIEDSLLMGADYYETDADRKLLAAKGSVPIGIGKNCHIKRAIIDKNARIGDNVKIINKDNVQEAARETDGYFIKSGIVTVIKDALIPSGIII”, the “soluble on expression in E. coli” value is reported as “soluble”. With “MAVTKELLQMDLYALLGIEEKAADKEVKKAYRQKALSCHPDKNPDNPRAAELFHQLSQALEVLTDAAARAAYDKVRKAKKQAAERTQKLDEKRKKVKLDLEARERQAQAQESEEEEESRSTRTLEQEIERLREEGSRQLEEQQRLIREQIRQERDQRLRGKAENTEGQGTPKLKLKWKCKKEDESKGGYSKDVLLRLLQKYGEVLNLVLSSKKPGTAVVEFATVKAAELAVQNEVGLVDNPLKISWLEGQPQDAVGRSHSGLSKGSVLSERDYESLVMMRMRQAAERQQLIARMQQEDQEGPPT” the “soluble on expression in E. coli” value was “soluble”. With “MAVTTTSESAAEFKEKNVSPVKVEFINAPEKDPGLNVEWQIQGTGYNNEGSGSVIYVRMKNLNDVAIPADAFDDPVLTINGTEASRVEAGTVDLDLPLGPGATTNLQFAFGTGYGSLSDAKLVLGNCIFEGNLSNI” the “soluble on expression in E. coli” value was “not soluble”. For “MAVVPIRIVGDPVLHTATTPVTVAADGSLPADLAQLIATMYDTMDAANGVGLAANQIGCSLRLFVYDCAADRAMTARRRGVVINPVLETSEIPETMPDPDTDDEGCLSVPGESFPTGRAKWARVTGLDADGSPVSIEGTGLFARMLQHETGHLDGFLYLDRLIGRYARNAKRAVKSHGWGVPGLSWLPGEDPDPFGH”, the “soluble on expression in E. coli” value was “soluble”. For “MAWGGLCNPPLCFGFSGCDMNVREYYEHALAERGYQPDEAQLQAVERLQRYYDEWVRFKALRSNALKKLLNRPDVPRGVYLWGGVGRGKSFLMDAFYATVPVVRKTRLHFHEFMRGVHRELEEVKGTQDPLDEVARRLARRYRLICFDEFHVSDVADAMILYRLLLKLFEHGTSFVMTSNYEPSTLYPDGLHRDRILPAIALIQGRMDVLNVDAGIDYRRRSLEQVQCYHTPLDAQARQALEHAFAQLSDTAPQDPVLHIEHREIRAQALAGSVVWFDFATLCGGPRSQNDYLELANRFHAVILSDVPRMGPRQASEARRFTWLIDVFYDHKVKLIMSAEVEPEQLYTEGALANEFHRTVSRILEMQSREYLEAERRLAVTLAAALEHHHHHH”, the “soluble on expression in E. coli” value was “not soluble”. For “MAWLNPFWSSPKAYVRPPKRGLAPELWASRIPFTHLENFYEVFRALWENRDNLPYAWRILKDGVCDGCALGTSGLEDWTLHGVHLCNVRLRLLSLNTLPPLDPKVLKDVEALKGRKSRELRRLGRLPYPMLRRKGERGFRRVSWDEAMGLATEYLRRHLPEGAFFYLTSRGVPNETYYVVQKAVRALGCNHVDNAARICHSPSTVVLKEALGVAATTCSYTDLIGTDLVVFLGSNVANNQPVMMKYLYHAKKAGTKVAVVNPYREPGMERYFVPSDLESALFGTRIADRFFQILPGGDIAFLHGAAKWMLEEGWVDPGFIRAHTAGFEAYKALLEAIPFAELEKAAGVSREEMRAFAEMVGRAERAVFVWGMGITQHTHGEDNVRAIVNLALLKGFVGREGCGLMPIRGHSGVQGGAEMGAYATAFPGGLPVNPENARRLAELWGFPVPDRPGLTTPEALDRALEGRLGVLWAIGGDFREVMPDPEAVEEALRRVPLRVHQDIVLSSQMLLEPGECVLLLPATTRYEVPGGVTETSTERRVIFSPEIPGPRPPEARPEWEVFQELVHRLRPELKDRFRFASTAEIREEIARVIPLYEGIQRFKAKGDQFQYGGRRLCEGWRFPTPDGKAHFRPVPLPQKEVPEGAFRVVTRRGKQFNSIVHEDQDPLTGAFRDAVYMNPKDAARLGLKPGDPVVLENAFGRYAGRVYLAEVKEGTLEVHWPEGNVLVDPKARSPLAHIPAYKEILAHLRRGEAEAPSPLRP”, the “soluble on expression in E. coli” value was “soluble”. With “MAYEEHFQQTSEAKYDCLLFDIDDTLYPLSSGLAMEVKKNIQEYMVQKLGIEEDKVQELCLSLYKIYGTTMAGLKAVGYDFDYDDFHRFVHGRLPYSTLKPDPILRNIILSLPIRKVVFTNADKAHAAKIIARLGLEGCFEKIISFETLNPITKTESPVDTKTREIFDIISYMANPDSSIELPKTSVVCKPSEGAFEQVFKMANINPKKTLFFDDSIRNIQTGKRVGLHTVWVGTSHREEGVDIALEHIHNIREALPQLWDAVDDKAKEIRTRQKVAIETIA” the “soluble on expression in E. coli” value was “not soluble”. In the case of “MAYETFAFVYDEVMDESLYQKWLDFSNRHLPQGTQQILEMACGTGALAVDFAKSGYDVTALDLSEEMLMIASERAFEEEVPVQFVQGNMLDLSEVGQYQAITCFSDSLCYMANRQEVQQVFDEVYQALEEEGTFIFDVHSTYKIDSVFPEYSYHYQTEEFAFLWDSYAGEKEHSIEHFLTFFVKEQETDEHFVRYDELHQERTYSLDNYLRMLESAGFMNVKVYADFTDEAPTETSERWFFVCQRD”, the “soluble on expression in E. coli” value is reported as “not soluble”. In the case of “MCFINLRSVADTINTQTRRITMFTYYQAENSTAEPALVNAIEQGLRAQHGVVTEDDILMELTKWVEASDNDILSDIYQQTINYVVSGQHPTLLEHHHHHH”, the “soluble on expression in E. coli” value is reported as “not soluble”. In the case of “MCGIVGYIGNNEKKQIILNGLKELEYRGYDSAGMAVMQEGELSFFKAVGKLENLANKCTDFESQGYGFAIGHTRWATHGKPTEINAHPHLGQYSCVIHNGIIENYKEIKDKLEKEGVSFLSQTDTEVIVQLFEFYARNLGVFEAWQKTIKELRGAFATLLVTKKDPNHVYFAKNAAPLIIGKNANKEWYFSSGDAPLIGSCDEVMYLEDLSLGYASKDELVVYENDILKSLCFSKLSGDKAYAKKDGFRFFMEKEIYEQSRVMSEVLMGRIQGDEVVFDELNNEDLSQVDEITLCACGTSYHAAMASAYLFERIAKVKAKVEIASEFRYREAIIKKDSLFIVISQSGETADTLEALKIAKEQGAKTFAICNVDNSNIVRLAHLSLLTRAGIEKGVASTKAFATQVLTLWMLAIFMAQKRNLNVSAEIKALLHTPNCVSVKQALHEKIHRLSKRYLDGHGFFFIGRDVFYPLALEGALKLKELSYLHAEGYPAGEMKHGPIALADSKLYTIALMPKHMLYEKTKSNVEELIARDSTVLSISPLEFDLSDDFIKTNEQDHYMCEFFEMMVITQLLAMEISIRLGNDVDMPRNLAKSVTVE”, the “soluble on expression in E. coli” value is reported as “not soluble”. In the case of “MCHEEVFSCCRTRTFHFLRSYGHDGWRNDGRNDERKADVSAHVLLPLHDAYDADDVHDADDGYALHGYEPHDGNDEHADDGSGNHEDCNRTQAKVYEGTYGKTPEENEKVIFSSFFPLFLEE”, the “soluble on expression in E. coli” value is reported as “not soluble”. For “MCIAIPGKMTAIVDENTATIDMGGICRDVNMALMGGAEESMIGKHFLVHVGYAISEISEEESEETMRLLKIMAGLEEIDSFE”, the “soluble on expression in E. coli” value was “soluble”. With “MCLAIPSKVIAIKDNVVLLETLGVQREASLDLMGESVKVGDYVLLHIGYVMSKIDEKEALESIELYQEMIARMNETQ” the “soluble on expression in E. coli” value was “not soluble”. With “MCLDQVMEGSATVHMAAPPDKIWTLIADVRNTGRFSPETFEAEWLDGATGPALGARFRGHVRRNGIGPVYWTVCEPGREFGFAVLLGDRPVNNWHYRLTPTADGTEVTESFRLPPSVLTTVYYRVFGGWLRQRRNIRDMTKTLQRIKDLVEAG” the “soluble on expression in E. coli” value was “soluble”. With “MCLGVPAQIAEIHDSTRATVSMSGVSRMVSTDLLAETIDVGDWVLIHVGFALSKIDEDEAAVTLQQIKQLGGFDEELQSFESSEI” the “soluble on expression in E. coli” value was “not soluble”. In the case of “MCLIVFAWQPGHALPLLVAANRDEFYARPSLPLAAWEDAEGVFAGRDLEAGGTWLGLGPAGRFAALTNVRDPSQALGKRSRGELVADFLRGGGNPADYLAQVAGRAADYSGFNLLIGDRHQLWHYNPRVGPPRLLPAGIYGLSNAALDTPWPKLLKARAALAERLAEPHPQALLELLADAAPAADGQLPDTGVGLATERLLSSVFIASPSYGTRASSVVRVHADGTREMIERSFGPSGARLGEVSLVLPPGLEHHHHHH”, the “soluble on expression in E. coli” value is reported as “not soluble”. With “MCLVDFGLRFNHKGRHYFKAANGEDIALSLSIGAAMFNGHPDYERLIQIADEALYIAKRRGRNRVELCKASL” the “soluble on expression in E. coli” value was “not soluble”. For “MCMSSQSYFKSVMYALVTGGTRGIGRAITEALLKEGYNVAVLYHGSEDKAKELREKGVLTVRCDVGDRNQVKKAKEEISNHFPRLDVLVNNAGIWYLMPFEQFDEEKYERMLRVNLNGTIYVTYEFLSLLKKSSAASIINIASNAGIGTAAEGTTFYAITKAGIIILTRRLAFELGKYGIRVNAVAPGWIETDMTLGNKSDEEKEKLREIFRNKTVLHTTGKPEDIANIVVFLASEKARYITGQVIVADGGRIDNLTHSV”, the “soluble on expression in E. coli” value was “soluble”. With “MCMVHTYLGETINFHITYKKKKSVRLFVDSYGNVEVQAPKGTPVEYLIQLLEEKWDWIQTTRKEMAERARGPQEKDYDQGEGFLYLGNTYPIQISQDANITQDNAVFEKDRLHIYVKELKDEKIQQALKRFYYKQKSLVEKSIKAHQSNFKTKPRSIRITDSSRTWGTCDSNLQLTFNWKLAMAPQRVIDYVVVHEMCHMVHLNHDRSFWRLVGKIMPDYKEMENWLALSSWKMTVMAGDPLEHHHHHH” the “soluble on expression in E. coli” value was “soluble”. For “MCRLAILALFSVAMVSVYGQDTPPPFLRNATPDQLKSFQQMIQSNGHLTETAMGAKIQEWVDQQGGKVAADWKDFQEFIKGQQGKSEAAHQTAISSFSPEAKKADAELTAISNDASLSIKAKGDKIQAYLTTLPANVKAELEKAQGQ”, the “soluble on expression in E. coli” value was “not soluble”.

Reference: the DeepSol protein solubility set
